Data from patent publication US20140072613A1 (published 2014).

T1: PKG1β(h) (human, UniProt Q13976-2 1-686)
T1 sequence (looked up): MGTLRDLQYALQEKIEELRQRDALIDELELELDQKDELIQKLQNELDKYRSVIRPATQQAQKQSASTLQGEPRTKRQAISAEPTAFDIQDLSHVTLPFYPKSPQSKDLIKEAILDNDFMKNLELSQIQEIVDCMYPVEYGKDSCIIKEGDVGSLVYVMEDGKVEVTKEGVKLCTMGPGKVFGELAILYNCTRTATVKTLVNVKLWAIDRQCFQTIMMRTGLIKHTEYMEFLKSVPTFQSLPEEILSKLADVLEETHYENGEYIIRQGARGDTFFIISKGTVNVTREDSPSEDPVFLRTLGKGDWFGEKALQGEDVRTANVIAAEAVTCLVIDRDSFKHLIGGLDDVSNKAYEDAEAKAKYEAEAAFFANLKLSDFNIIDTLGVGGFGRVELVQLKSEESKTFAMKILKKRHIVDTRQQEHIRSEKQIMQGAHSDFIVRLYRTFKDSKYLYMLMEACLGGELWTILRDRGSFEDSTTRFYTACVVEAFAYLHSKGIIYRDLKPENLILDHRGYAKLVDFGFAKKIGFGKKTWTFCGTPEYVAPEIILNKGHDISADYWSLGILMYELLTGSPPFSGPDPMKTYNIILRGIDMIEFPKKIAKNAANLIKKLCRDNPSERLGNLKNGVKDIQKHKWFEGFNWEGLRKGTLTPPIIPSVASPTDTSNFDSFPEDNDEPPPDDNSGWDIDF

T2: DDR2(h) (human, UniProt Q16832 422-855, limits assumed)
T2 sequence (looked up): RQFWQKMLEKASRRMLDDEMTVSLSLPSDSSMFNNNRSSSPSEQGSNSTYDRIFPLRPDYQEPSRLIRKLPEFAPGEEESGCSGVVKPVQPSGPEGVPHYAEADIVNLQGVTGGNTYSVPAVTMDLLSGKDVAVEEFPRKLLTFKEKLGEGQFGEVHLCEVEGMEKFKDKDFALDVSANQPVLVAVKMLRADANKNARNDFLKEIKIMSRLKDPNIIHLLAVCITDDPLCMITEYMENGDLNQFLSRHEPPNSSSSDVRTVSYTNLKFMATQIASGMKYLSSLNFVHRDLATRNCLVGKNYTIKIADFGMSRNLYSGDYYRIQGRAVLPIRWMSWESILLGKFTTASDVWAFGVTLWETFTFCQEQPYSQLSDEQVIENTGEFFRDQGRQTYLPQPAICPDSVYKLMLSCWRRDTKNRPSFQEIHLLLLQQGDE

T3: IRAK4(h) (human, UniProt Q9NWZ3 1-460, limits assumed)
T3 sequence (looked up): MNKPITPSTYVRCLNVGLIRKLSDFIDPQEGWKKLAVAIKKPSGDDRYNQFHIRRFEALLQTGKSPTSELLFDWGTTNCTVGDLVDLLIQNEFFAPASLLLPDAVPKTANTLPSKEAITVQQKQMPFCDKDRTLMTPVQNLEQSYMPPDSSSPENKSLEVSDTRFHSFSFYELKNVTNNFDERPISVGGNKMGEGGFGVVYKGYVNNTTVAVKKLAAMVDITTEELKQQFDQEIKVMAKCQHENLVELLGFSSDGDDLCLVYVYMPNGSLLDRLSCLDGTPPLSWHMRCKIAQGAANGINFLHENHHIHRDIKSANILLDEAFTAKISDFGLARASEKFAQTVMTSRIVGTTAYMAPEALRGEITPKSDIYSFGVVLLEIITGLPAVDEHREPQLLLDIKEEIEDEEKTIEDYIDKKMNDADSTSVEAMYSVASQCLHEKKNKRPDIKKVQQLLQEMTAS

T4: Tec(h)activated (human, UniProt P42680 1-631, limits assumed)
T4 sequence (looked up): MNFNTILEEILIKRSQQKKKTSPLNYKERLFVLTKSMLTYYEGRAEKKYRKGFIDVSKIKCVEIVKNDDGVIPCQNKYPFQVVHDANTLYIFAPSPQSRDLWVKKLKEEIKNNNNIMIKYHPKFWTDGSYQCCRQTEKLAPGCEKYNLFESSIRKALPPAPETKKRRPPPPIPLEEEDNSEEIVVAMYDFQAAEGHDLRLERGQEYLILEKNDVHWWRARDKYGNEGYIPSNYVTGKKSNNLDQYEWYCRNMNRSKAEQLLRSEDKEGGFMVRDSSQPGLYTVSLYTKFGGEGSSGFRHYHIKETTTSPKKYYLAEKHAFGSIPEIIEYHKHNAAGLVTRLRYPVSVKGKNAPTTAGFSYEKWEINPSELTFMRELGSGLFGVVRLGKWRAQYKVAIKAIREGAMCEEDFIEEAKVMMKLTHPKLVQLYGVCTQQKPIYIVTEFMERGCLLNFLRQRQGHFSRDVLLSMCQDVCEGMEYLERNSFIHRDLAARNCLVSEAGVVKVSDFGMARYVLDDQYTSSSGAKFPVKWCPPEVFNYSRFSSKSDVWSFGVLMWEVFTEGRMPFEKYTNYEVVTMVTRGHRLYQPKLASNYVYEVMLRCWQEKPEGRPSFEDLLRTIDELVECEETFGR

T5: EphB2(h) (human, UniProt P29323 565-986, limits assumed)
T5 sequence (looked up): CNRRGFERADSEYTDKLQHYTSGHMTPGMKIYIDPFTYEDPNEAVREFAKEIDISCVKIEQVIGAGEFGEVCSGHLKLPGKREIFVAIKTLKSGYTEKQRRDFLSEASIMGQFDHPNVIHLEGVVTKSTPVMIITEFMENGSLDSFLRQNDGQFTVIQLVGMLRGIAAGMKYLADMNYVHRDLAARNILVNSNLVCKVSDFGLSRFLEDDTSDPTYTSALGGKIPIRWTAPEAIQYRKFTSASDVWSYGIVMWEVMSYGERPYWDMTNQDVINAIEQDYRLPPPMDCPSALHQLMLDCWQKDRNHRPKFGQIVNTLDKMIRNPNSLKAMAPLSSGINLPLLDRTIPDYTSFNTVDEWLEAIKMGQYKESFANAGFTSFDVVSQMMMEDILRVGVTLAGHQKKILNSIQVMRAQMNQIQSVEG


Key:
Test in all cases: cell-based or functional assay
PKG1β(h) = target: T1, PKG1β(h)
ASK1(h) = ASK1(h) (human, UniProt Q99683 649-946, limits assumed)
PKCγ(h) = PKCγ(h) (human, UniProt P05129 1-697)
DDR2(h) = target: T2, DDR2(h)
IGF-1R(h), activated = IGF-1R(h), activated (human, UniProt P08069 959-1367, limits assumed)
IRAK4(h) = target: T3, IRAK4(h)
Met(D1246N)(h) = Met(D1246N)(h) (human, UniProt P08581-2 974-1408, limits assumed)
Tec(h)activated = target: T4, Tec(h)activated
EphB2(h) = target: T5, EphB2(h)

IGF-1R(h), activated, sequence (P08069 959-1367 limits assumed): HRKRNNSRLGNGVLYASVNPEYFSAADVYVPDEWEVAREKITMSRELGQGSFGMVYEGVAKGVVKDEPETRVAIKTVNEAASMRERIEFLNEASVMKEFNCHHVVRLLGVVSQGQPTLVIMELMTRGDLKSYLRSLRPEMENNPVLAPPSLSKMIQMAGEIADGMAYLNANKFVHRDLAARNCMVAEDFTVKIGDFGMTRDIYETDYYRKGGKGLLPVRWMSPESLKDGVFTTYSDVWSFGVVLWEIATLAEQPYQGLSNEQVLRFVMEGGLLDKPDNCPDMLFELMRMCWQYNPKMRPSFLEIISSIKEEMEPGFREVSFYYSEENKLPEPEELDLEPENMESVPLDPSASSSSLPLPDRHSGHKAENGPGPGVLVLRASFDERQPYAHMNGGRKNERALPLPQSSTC
ASK1(h), sequence (Q99683 649-946 limits assumed): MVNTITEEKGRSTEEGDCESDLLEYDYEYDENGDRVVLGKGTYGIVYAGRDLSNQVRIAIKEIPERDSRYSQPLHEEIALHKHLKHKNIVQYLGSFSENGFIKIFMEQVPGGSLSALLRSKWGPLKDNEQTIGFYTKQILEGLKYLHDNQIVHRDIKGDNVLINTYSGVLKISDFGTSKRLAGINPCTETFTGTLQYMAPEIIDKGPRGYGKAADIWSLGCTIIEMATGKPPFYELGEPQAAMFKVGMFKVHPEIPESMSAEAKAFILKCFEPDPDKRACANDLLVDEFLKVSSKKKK

Binder	% activity, 100 µM (PKG1β(h))	% activity, 100 µM (ASK1(h))	% activity, 100 µM (PKCγ(h))	% activity, 100 µM (DDR2(h))	% activity, 100 µM (IGF-1R(h), activated)	% activity, 100 µM (IRAK4(h))	% activity, 100 µM (Met(D1246N)(h))	% activity, 100 µM (Tec(h)activated)	% activity, 100 µM (EphB2(h))
KAFAKLAARLYRKALARQLGVAA [MMI-0400]	53%	69%	79%	95%	77%	59%	31%	29%	22%
FAKLAARLYRKALARQLGVAA [MMI-0300]	50%	80%	89%	94%	80%	59%	82%	56%	18%
